In publication PMC12221289, “Armless hairpin-like tRNAs in Romanomermis culicivorax: Evolutionary adaptation of a mitochondrial elongation factor EF-Tu”:

Legend:
Experiment in all cases: DRaCALA; GTP; DRaCALA of EF-Tu:GTP:Phe-tRNA ternary complexes, 2 ul spotted on nitrocellulose, n>=3; binding buffer, pH and temperature not in the material
Bta mt-EF-Tu D384A = Bta mt-EF-Tu D384A (Bos taurus, UniProt P49410 44-452, D384A)
Bta mt-EF-Tu D384K = Bta mt-EF-Tu D384K (Bos taurus, UniProt P49410 44-452, D384K)
Bta mt-EF-Tu = Bta mt-EF-Tu (Bos taurus, UniProt P49410 44-452)

B1: Phe-tRNAPhe (canonical) (structured_RNA)
RNA: GCGGAUUUAGCUCAGUUGGGAGAGCGCCAGACUGAAGAUCUGGAGGUCCUGUGUUCGAUCCACAGAAUUCGCACCA
modifications: 3'-aminoacylated with Phe (flexizyme)
B1 showed a Kd (Bta mt-EF-Tu D384A) of 11.5 nM, a Kd (Bta mt-EF-Tu D384K) of 76.6 nM and a Kd (Bta mt-EF-Tu) of 5.8 nM.
